From PMC11931385, “Structural and functional analysis of cancer-associated missense variants in the retinoblastoma protein pocket domain” (The Journal of Biological Chemistry, 2025)
No end group written: not given here. TMR = tetramethyl rhodamine dye

Columns and labels:
Assay in all cases: fluorescence polarisation; 25 °C; unlabeled Rb^P titrated against 1.5 nM TMR-E2F1^TD or 7.5 nM TMR-E7^LxCxE; 25 mM Tris pH 8.0, 200 mM NaCl, 1 mM DTT, 0.1% Tween-20; 2 min incubation; quadratic fit; apparent Kd for the variants, Kd for WT
Conditions in all cases: both partners purified
Rb^P M761L = biological target: T1, Rb^P M761L (human, UniProt P06400 380-788, M761L)
T1 construct: also called variant 74
T1 sequence (looked up): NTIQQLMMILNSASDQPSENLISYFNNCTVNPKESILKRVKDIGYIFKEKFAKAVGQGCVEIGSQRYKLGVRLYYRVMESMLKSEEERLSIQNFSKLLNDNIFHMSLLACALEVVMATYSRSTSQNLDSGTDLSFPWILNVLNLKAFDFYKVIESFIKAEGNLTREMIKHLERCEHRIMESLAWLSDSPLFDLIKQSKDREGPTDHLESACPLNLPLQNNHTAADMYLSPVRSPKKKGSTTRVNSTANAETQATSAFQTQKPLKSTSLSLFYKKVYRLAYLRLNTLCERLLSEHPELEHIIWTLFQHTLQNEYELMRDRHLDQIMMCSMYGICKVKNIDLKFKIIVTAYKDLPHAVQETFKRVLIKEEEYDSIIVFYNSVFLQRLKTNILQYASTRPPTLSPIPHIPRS

Rb^P S474N = biological target: T2, Rb^P S474N (human, UniProt P06400 380-788, S474N)
T2 construct: also called variant 12
T2 sequence (looked up): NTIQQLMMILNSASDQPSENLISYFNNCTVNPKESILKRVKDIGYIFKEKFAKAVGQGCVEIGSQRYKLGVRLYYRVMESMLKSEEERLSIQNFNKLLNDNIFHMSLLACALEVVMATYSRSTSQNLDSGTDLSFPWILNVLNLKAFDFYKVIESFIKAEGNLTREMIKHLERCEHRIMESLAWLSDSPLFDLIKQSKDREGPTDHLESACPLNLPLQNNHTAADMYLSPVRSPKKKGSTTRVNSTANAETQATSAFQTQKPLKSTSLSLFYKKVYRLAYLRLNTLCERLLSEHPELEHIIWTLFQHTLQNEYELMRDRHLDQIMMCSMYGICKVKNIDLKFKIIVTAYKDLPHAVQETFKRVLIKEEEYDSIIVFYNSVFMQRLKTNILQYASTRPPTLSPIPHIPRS

Rb^P V654L = biological target: T3, Rb^P V654L (human, UniProt P06400 380-788, V654L)
T3 construct: also called variant 47
T3 sequence (looked up): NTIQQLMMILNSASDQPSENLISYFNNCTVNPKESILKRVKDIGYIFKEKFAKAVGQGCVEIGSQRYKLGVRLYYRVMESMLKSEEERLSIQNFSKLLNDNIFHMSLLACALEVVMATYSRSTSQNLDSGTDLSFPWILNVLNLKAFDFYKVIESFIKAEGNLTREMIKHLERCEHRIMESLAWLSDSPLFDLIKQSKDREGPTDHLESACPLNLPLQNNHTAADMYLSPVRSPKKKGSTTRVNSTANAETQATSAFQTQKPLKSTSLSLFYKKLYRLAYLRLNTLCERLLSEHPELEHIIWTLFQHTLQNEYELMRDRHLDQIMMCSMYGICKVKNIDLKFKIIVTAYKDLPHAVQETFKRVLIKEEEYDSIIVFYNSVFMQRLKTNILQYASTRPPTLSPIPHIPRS

Rb^P R451C = biological target: T4, Rb^P R451C (human, UniProt P06400 380-788, R451C)
T4 construct: also called variant 5
T4 sequence (looked up): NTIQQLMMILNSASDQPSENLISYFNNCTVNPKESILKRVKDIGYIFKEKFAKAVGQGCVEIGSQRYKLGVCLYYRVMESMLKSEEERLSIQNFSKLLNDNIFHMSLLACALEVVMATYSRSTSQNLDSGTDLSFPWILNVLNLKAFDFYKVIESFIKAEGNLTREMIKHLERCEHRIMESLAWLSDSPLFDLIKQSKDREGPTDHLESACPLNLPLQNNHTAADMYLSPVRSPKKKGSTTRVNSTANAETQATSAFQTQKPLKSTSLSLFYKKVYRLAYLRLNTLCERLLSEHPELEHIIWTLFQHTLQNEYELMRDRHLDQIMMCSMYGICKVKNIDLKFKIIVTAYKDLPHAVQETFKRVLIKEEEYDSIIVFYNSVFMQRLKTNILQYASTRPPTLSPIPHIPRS

Rb^P H699P = biological target: T5, Rb^P H699P (human, UniProt P06400 380-788, H699P)
T5 construct: also called variant 63
T5 sequence (looked up): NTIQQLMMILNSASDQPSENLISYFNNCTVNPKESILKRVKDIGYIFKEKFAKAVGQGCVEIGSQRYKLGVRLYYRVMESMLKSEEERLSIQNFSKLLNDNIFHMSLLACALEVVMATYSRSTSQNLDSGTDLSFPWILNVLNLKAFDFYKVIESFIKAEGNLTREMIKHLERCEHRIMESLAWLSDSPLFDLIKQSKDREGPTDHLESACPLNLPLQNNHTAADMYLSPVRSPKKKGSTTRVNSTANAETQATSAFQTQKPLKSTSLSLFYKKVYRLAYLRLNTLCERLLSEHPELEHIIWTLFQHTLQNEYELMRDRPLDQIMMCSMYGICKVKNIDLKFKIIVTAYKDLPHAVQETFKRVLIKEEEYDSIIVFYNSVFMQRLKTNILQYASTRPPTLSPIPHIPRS

| Binder | Kd (Rb^P M761L) [nM] | Kd (Rb^P S474N) [nM] | Kd (Rb^P V654L) [nM] | Kd (Rb^P R451C) [nM] | Kd (Rb^P H699P) [nM] |
| --- | --- | --- | --- | --- | --- |
| {TMR}-GEGIRDLFDCDFGDLTPLD (also called E2F^TD; source: synthetic peptide, bought: GenScript) [TMR-E2F1^TD, peptide of the E2F1 transactivation domain] | 32 | 19 | 18 | 33 | 35 |
| DLYCYEQLN (also: TMR label, position not given here, source: synthetic peptide, bought: GenScript) [TMR-E7^LxCxE, LxCxE peptide of the E7 oncoprotein from HPV] | 1.3 | 8 | 11 | 7 | 6 |
